CN112679613A
Where a chain is given by its changes, count along the chain named.

B1: 4D6单克隆抗体 (antibody, V domains shown)
VH: EVKLVESGGGLVKPGGSLKLSCAASGFTFSQYRMGWVRQIPEKRLEWVAEISSASSLYFPDSVKSRFTISRDNARNICYLQMNSLRSDDTAMYYCARAREADNVYFDAWGQGTTLTVSS
VL: DIVLTQSPASLAVSLGQRATISCSQSESGTYYGTSLAMWYQQKPGQPPKLLIYAASNVESGVPARFSGSGSGTDFSLNIHPVEEDDIAMYFCTASMKAPLRFGAGTKLELK
B2: 2D3单克隆抗体 (antibody, V domains shown)
VH: EVKLVESGGGLVKPGGSLKLSCAASGFTFSSAAMRWVRQIPEKRLEWVARIEEGGSAYFPDSVLVRFTISRDNARNICYLQMNSLRSDDTAMYYCARSRESPAGYFKLWGQGTTLTVSS
VL: DIVLTQSPASLAVSLGQRATISCCASESVHPYGTSLAMWYQQKPGQPPKLLIYASSRVEPGVPARFSGSGSGTDFSLNIHPVEEDDIAMYFCSSSGQVPARFGAGTKLELK
B3: 4D3单克隆抗体 (antibody, V domains shown)
VH: EVKLVESGGGLVKPGGSLKLSCAASGFTFSASAQSWVRQIPEKRLEWVALQSRSGSLYFPASVKQRFTISRDNARNICYLQMNSLRSDDTAMYYCARSREASGGYIDEWGQGTTLTVSS
VL: DIVLTQSPASLAVSLGQRATISCSASESGGYYGTSLMNWYQQKPGQPPKLLIYSTSNEEKGVPARFSGSGSGTDFSLNIHPVEEDDIAMYFCGQSMKRPLRFGAGTKLELK
B4: 3E2单克隆抗体 (antibody, V domains shown)
VH: EVKLVESGGGLVKPGGSLKLSCAASGFTFSNSAMRWVRQIPEKRLEWVAVIRAGGSLYFPDRVKSRFTISRDNARNICYLQMNSLRSDDTAMYYCARGREADGGYFDYWGQGTTLTVSS
VL: DIVLTQSPASLAVSLGQRATISCAASERREYYGTSLASWYQQKPGQPPKLLIYARSNVEYGVPARFSGSGSGTDFSLNIHPVEEDDIAMYFCGSSMKRPLRFGAGTKLELK
B5: 5A3单克隆抗体 (antibody, V domains shown)
VH: B4 VH with N31R, S32Y, R35S, V50A, R52S, A53S, R62S, S65G
VL: DIVLTQSPASLAVSLGQRATISCSASESCYYYGTSLAQWYQQKPGQPPKLLIYKLSNVRGGVPARFSGSGSGTDFSLNIHPVEEDDIAMYFCRQPMKVPLKFGAGTKLELK
B6: 5D7单克隆抗体 (antibody, V domains shown)
VH: EVKLVESGGGLVKPGGSLKLSCAASGFTFSDAAMRWVRQIPEKRLEWVASISSLISLYFPDSVESRFTISRDNARNICYLQMNSLRSDDTAMYYCARGAEASGGYFDQWGQGTTLTVSS
VL: B4 VL with A24S, R28H, R29P, A37M, S38A, R55S, Y60T, G93Q, S94V, R101D
B7: 6F4单克隆抗体 (antibody, V domains shown)
VH: EVKLVESGGGLVKPGGSLKLSCAASGFTFSQYASLWVRQIPEKRLEWVAAISGQGSLYFPDSVCTRFTISRDNARNICYLQMNSLRSDDTAMYYCARGAAADGGYFDTWGQGTTLTVSS
VL: DIVLTQSPASLAVSLGQRATISCSASESVEFSGTSLTRWYQQKPGQPPKLLIYASQNVEGGVPARFSGSGSGTDFSLNIHPVEEDDIAMYFCCYSMKVPPRFGAGTKLELK
B8: 6G5单克隆抗体 (antibody, part only; not given: Light chain variable region, V domains shown, part only)
VH: EVKLVESGGGLVKPGGSLKLSCAASGFTFSAYAMTWVRQIPEKRLEWVAAISPTGSLYFPGSVSGRFTISRDNARNICYLQMNSLRSDDTAMYYCARGVEADSQYFDKWGQGTTLTVSS

Columns and labels:
[1] = target: 肝癌Huh-7细胞 (Huh-7癌细胞抗原; Huh-7细胞裂解蛋白); test: SPR, BIAcore T-200, 1:1 Langmuir model; binding to liver cancer Huh-7 cells
[2] = target: 肝癌Huh-7细胞 (Huh-7癌细胞抗原; Huh-7细胞裂解蛋白); test: indirect ELISA; plate coated with 2 μg/mL Huh-7 cell antigen; purified ascites antibody in 2-fold dilutions

Binder	Kd [1] [nM]	抗体效价 [2]
B1	0.31	5.12e+06
B2	0.23	5.12e+06
B3	0.29	5.12e+06
B4	0.56	2.56e+06
B5	0.58	2.56e+06
B6	0.45	5.12e+06
B7	0.62	2.56e+06
B8	0.34	5.12e+06
